{
  "source": "patent US20230025707A1",
  "about": "(University of Pennsylvania, published 2023)",
  "key": {"[1]": {"biological_target": "T1, human α-Synuclein pre-formed fibrils (human, UniProt P37840 1-140)", "experiment": "cell-based or functional assay"}, "[2]": {"biological_target": "Lewy body α-Synuclein (human, UniProt P37840 1-140)", "experiment": "IHC, human amygdala; OD of Lewy bodies / OD of tissue", "text": "FIG. 2A: Sections of amygdala tissue containing abundant Lewy body pathology were stained using undiluted or 1:3 diluted hybridoma supernatant. […] FIG. 2B: The optical density within Lewy bodies divided by the optical density of a 1 mm² tissue section containing those Lewy bodies was defined as the Lewy Body Discrimination Index. Antibodies preferentially recognizing Lewy bodies score high on this measure.\nIn order to rapidly screen for antibody selectivity to pathological α-Synuclein, amygdala sections from PD patients with abundant LB pathology were immunostained. Hybridoma supernatants were used undiluted or at a 1:3 dilution on screening slides processed in parallel to allow direct comparison of immunostaining. […] A value of 1 indicates no discrimination of LBs over normal synaptic neuropil staining."}, "[3]": {"biological_target": "T1, human α-Synuclein pre-formed fibrils", "experiment": "sandwich ELISA; PFF vs monomer from EC50s, Syn211 as control", "experimental": "Fibrils were then sonicated on high for 10 cycles of 30 seconds on, 30 seconds off (Diagenode Biorupter UCD-300 bath sonicator) prior to dilutions. Dilutions were added to each well (30 μL per well) and incubated overnight at 4° C. The plate was washed 4 times with PBST. 30 μL of MJF-R1 (1:3,000, Abcam Cat #ab138501) in Buffer C was added to each well and the plate was incubated for 4 hours at 37° C. After washing with PBST 4 times, 1:10 k diluted goat-anti-rabbit IgG-HRP conjugate (Cell Signaling Technology) was added to the plate and the plate was incubated for 1 hour at 37° C.\nThis assay retains the conformation of α-Synuclein by allowing binding of α-Synuclein that is in solution to immobilized antibody, and allows a broad range of affinity detection. Antibodies of interest were coated on an ELISA plate and either α-Synuclein monomer or PFF were incubated with the antibodies at increasing α-Synuclein concentrations to determine relative affinity of the antibodies for each form of α-Synuclein.\nBy fitting the absorbance values with a sigmoid dose curve, EC₅₀ values were calculated for each antibody."}},
  "data": [
    {"binder": "9110 (antibody, IgG1, V domains shown) VH: EVHLVESGGGLVQPKGSLKLSCAASGFTFNTYAMHWVRQAPGKGLEWVARIRNKSNNYATYYADSVKDRFTISRDDSQSMLFLQMDNLKTEDTAIYYCVRGGLSPFDYWGQGTTLTVSS VL: QIVLTQSPAIMSASPGEKVTMTCSASSSVTYMHWYQQKSGTSPKRWIYDTSKLASGVPARFSGSGSGTSYSLTISSMEAEDAATYYCQQWSSNPPTFGGGTKLEIR", "values": [
      {"measurement": "% Inhibition (primary neuron assay)", "setting": "[1]", "value": 81.6, "unit": "%"},
      {"measurement": "LB Discrimination Index", "setting": "[2]", "value": 1.73},
      {"measurement": "PFF Preference", "setting": "[3]", "value": 0.533}
    ]}
  ]
}
